The values that follow come from the DeepSol protein solubility set.

The data set in a line: soluble on expression in E. coli; label from the status in PepcDB or PDB records.
As for “MGSDKIHHHHHHMSEEQKTISISELESMNIKQLYEIAKSLGIPRYTSMRKRDLIFAILKAQTESTGYFFGEGVLEIHPEGFGFLRRIEDNLLPSNDDIYISPSQIRKFNLNTGDIISGVIRKPKEGEKYFAMIKIEAINYRPVEAVNDRVNFDNLTPDYPRERFILETDPKIYSTRLIDLFAPIGKGQRGMIVAPPKAGKTTILKEIANGIAENHPDTIRIILLIDERPEEVTDIRESTNAIVIAAPFDMPPDKQVKVAELTLEMAKRLVEFNYDVVILLDSLTRLARVYNIVVPPSGKLLTGGVDPAALYKPKRFFGAARNTREGGSLTIIATALVETGSKMDEVIFEEFKGTGNMELVLSRQLANKRIFPAINLLLSGTRREELLLDEETLKKVWLLRRMLSAMTEEEGLTLILNKLSETSSNEEFLKLIDKEKARY”, the “soluble on expression in E. coli” value is recorded as “not soluble”.

Take “MGSDKIHHHHHHMSELNAQQVVDYLQHHPDFLIQHPELLAQLELQQQAQGATSLVHIQQRQLREHNTLLKNQIASMNKYAAQNEQVYRLFSLCHQQLCSNNDFDALASNLQDIICSNPDISDCRLVKYDTKYAQLVEHRLSNSGHYLGRINQQERDLLFSDTAQSTAIYLIGDINKPIAILAFASNNANHFEPAQDTLFVLDFVVALQSRLLELA”: the “soluble on expression in E. coli” value is “not soluble”.

On to “MSLHINQLLQHANSDLPLLQANFGLERESLRINKTNHRLAQTPHPTALGSRQFHPYIQTDYSESQMELITPVAHSSKEVLRFLGAITDVAERSIDQNQYLWPLSMPPQITEDEIEIAQLEDDFEFSYRQYLDKKYGKILQSISGIHYNMELGADLMNELFELSGYQSFIDFKNDLYLKVAQNFLNYRWFLTYLYGASPLAEKGFLNEELSQTVRSIRNSHLGYVNTDDIKVPFDSLENYISSIEHYVKSGALSAEKEFYSAVRLRGSKHNRDYLTKGITYLEFRCFDLNPFNNRGITQETIDSVHLFILAMLWLDTPKKLNQALDKAQKLNDKIALSHPLEKLPKENSASLIIEAMEALIKHFKLPSYYDDLLIAIKKQVENPKLTLSGRLFEHIKHASLEHFGQKKGQDYHNYAWQNYYALKGYENMELSTQMLLFDTIQKGIHFEILDENDQFLKLWHNDHIEYVKNGNMTSKDNYVIPLAMANKVVTKKILRENGYPVPAGAEFDNKDEALRYYSQIKNKPIVVKPKTTNFGLGISIFETAASHNDYEKALDIAFIEDYSVLVEEFIPGTEYRFFILDGKCEAVLLRVAANVVGDGHSTVRQLVAQKNRDPLRGREHRSPLEIIDLGDIELLMLQQEGYTLEDILPKGKKVNLRGNSNISTGGDSIDVTETMDPSYKQLAANMATAMGAWVCGVDLIIPDTNLKASKGKPNCTCIELNFNPSMYMHTYCYQGPGQVITGKILAKLFPEISTKIEGHHHHHH”, for which the “soluble on expression in E. coli” value is on record as “soluble”.

Turning to “MVKKEFHLTHTFKNVSKLEDGKTLYGPEEEHFNIPWQLSFCRKEEFVGVFLRCLRPTDGIVPWEINADCILKLTSSAGKCLSHSSTYIFQSIGGFGRRKFVSWDTLVKDHLVNDSIIMEATVMITKMTGISKKKLRSFEKSEEQFSDVVLAVEDKKFFVLRKFLASHSSYFKSLLLGTFAEADKSEIKHEAINSIDFQNFLEVLYGEPVIDDDDVEGILHLAHMYDVPVAIRKCEEFLIEKSEKSMRDQLEIAKKYQLDNLKKSCLSKVNTVEEIKAALMCDLADMDPTVVAALFRKSLALL”, the “soluble on expression in E. coli” value is on record as “not soluble”.

As to “MRGGVESTSTACATGLHCIGNSFRSIRYGDSRRALAGAVECALNPIALAGFDRMRALARGDQPNISRPFDKKRAGFVMSEGVGLVFMERLEDAQARGAQILAEVVGYGISSDCYHISTPDPSAIGAVLSMNRAIGNAHLEPKDIGYVNAHATSTPNGDSVEAEAVRQVFPEQNIAVSSVKGHIGHLLGAAGSVEAIATIFAMNDDVLPANRNLEETDEGNGLNLLRENQKWSDVSGNKSRISICNSFGFGATNASLILKQF”, the “soluble on expression in E. coli” value is “not soluble”.

Regarding “GSHMAIDENKQKALAAALGQIEKQFGKGSIMRLGEDRSMDVETISTGSLSLDIALGAGGLPMGRIVEIYGPESSGKTTLTLQVIAAAQREGKTCAFIDAEHALDPIYARKLGVDIDNLLCSQPDTGEQALEICDALARSGAVDVIVVDSVAALTPKAEIEGEIGDSHMGLAARMMSQAMRKLAGNLKQSNTLLIFINQIRMKIGVMFGNPETTTGGNALKFYASVRLDIRRIGAVKEGENVVGSETRVKVVKNKIAAPFKQAEFQILYGEGINFYGELVDLGVKEKLIEKAGAWYSYKGEKIGQGKANATAWLKDNPETAKEIEKKVRELLLSNPNSTPDFSVDDSEGVAETNEDF”, the “soluble on expression in E. coli” value is on record as “soluble”.

With “MSSETLEFSGCNFFRIRLAYSILSGRPIRIINIRKNDDRPGIRDFESKLIGLLEKVTNGTKVEISRTGTQVIFRPGMITGGVVNLDCGTERCISYFLEPLLLLSPFCKVPMVIKLKGVTNAPGEISVDGMKASWLKVYNKFVLNDEKLDIKIQARGLKPEGGGVVVFTAPIVKTLRPVKRQQVGKVCKIRGQAYVTKVTPSLAYRMIDAAKKAMHGYISDVYITVDQRKGDAGGASPGYGLFLTAETTEGVIYQAEAISRPKGESGVPILPEDIGIEAGHALLQQIYMGGALDSSAQILASTFMTLCPKDVSHFLYGPLPMYSVHALRHLKQFFEIEFKMEDFKKTLKEEEADLKTGSADKAMVTAVGVGYSNLNKTIL”, the “soluble on expression in E. coli” value was “not soluble”.

For the sequence “MVQQSEVRQMKHSVSTLNQEMTQLNQETVKITQQNRLNAKSSSGVYLLPGAKTPARLESQIGTLRMSLVNITPDADGTTLTLRIQGESNDPLPAFSGTVEYGQIQGTIDNFQEINVQNQLINAPASVLAPSDVDIPLQLKGISVDQLGFVRIHDIQPVMQLEHHHHHH”, the “soluble on expression in E. coli” value is given as “soluble”.

On to “MGSDKIHHHHHHMTTILHAMLGKGLGGLEQVFLDYQPILEAWAARRGGRCVGVVRKGGKMAVAQANRTPPLSAMPALTDWDPITVGAARALVKTYRPALIFSHGQRPARVFDKAAPADVVRAVCLHKPSFDVTPGTHYVCVGQHLAALAIERGAPADHVWLVPNAVKPPGVEAQPFAEAGRPIRIVAAGRLHPKKGFDVLIHAVGKLRAWDYEVTCEIAGEGDERGALEGLIRDLDLEASVTLKGWTGDVAGFLATGDLFAFPSHQEGFPLTLLEAMAVGLPVVASEIDGPLEILTDGRDGRLVPDNDPDRLAEALAELISDRETAVRLGAAARQQVLTEYSPQELARRLEAALDGMTSRA”, for which the “soluble on expression in E. coli” value was “not soluble”.

For the sequence “KNVWIFAEQREGKIAPVVIELLGEGRKLAKEVDAELCAILLGKDVDGLAKELITFGADKVYVADDALLEKYTTDAYTKVIKDAIDEIKPEIMLFGATHIGRDLAPRIASRVGTGLTADCTKLEIDPEDKKIKQTRPAFGGNIMATIICPNHRPQMSTVRPGVMDKAEKDETRTGEVIALDYKITQDDIRTTVLETV”, the “soluble on expression in E. coli” value is reported as “not soluble”.

On to “MKYFMGPHVWQRTIADLEALGHQRVDTFEQAEAYINTEPRPLRIPTIPESVGFVQHCFTGVNQLIDAHVITETGVRWANMAGGFAQPVAESALGLMLSQAHHHKAFALAGTWRVARELDRIQQWLHSVGEPRCVVIFGAGGIAKELIRLLEPFGMHVIAVNRSGRSVAGADETFAMKDAQGLWSRGDFIVNILPLTQETKGLVDRDVFAQMKPSAIFINVGRGATVVTDDLVDALQRGVIAGAGLEVVDPEPLPDSHALHSMPNCTITPHMAASDHVAELHVARIFDANAQAFTRGETMPTEVNPHLGY”, for which the “soluble on expression in E. coli” value is given as “not soluble”.

“MGSDKIHHHHHHMSSCEIFPLISKLSAEGKRFAIVSIYKGNRLERTIVSDGRVLLGSLDRNIIEIALEALEKGKVIQKDLEDGKLVIEPIEPRPAIIVVGSGIIARFLAKLAIDMGYYVAVVGSGDVKEEDFSGVYAISNDLNLLEQMVSEDSIVIVANEGGKPYDIDALYIAMKKRARFVGLLASQKRAALMISLLVKRDIPLEEIKRRLHSPLGLDIGSKTAEEIALSILSEVVLDLRGGTGKRLQEVKNPYLLLDDALAGKIEDKCMFVPKSLSQQ”: the “soluble on expression in E. coli” value is recorded as “not soluble”.

As to “MGRIRQTFIKRTGEELIEKFADKFTSDFEENKKAVEEVAMISTKPLRNRIAGYVTAKVKKMNALEHHHHHH”, the “soluble on expression in E. coli” value is on record as “not soluble”.

Take “MNDETPRCPYNSLYKPLNLIKSKPDGCFKHNGQCTYGKNLVESVDDGNSRTPYNSIYEPLSLNKPKPDGRSSNGKKPVDNEYVNLPVLSEEQKLADKLAAKLRKLEVKEPKSKKRGSKERKKKKSEPVESTYESLATIEGSTNYSGPVTTESLESNVKFHHASQTAYIGVYSSADAEAQVKNRGEFALYHLFEVGNGIDHLTATLPFGGLWIPNRSQTLLAQSTRSILQIVRIDSDETRGHLL”: the “soluble on expression in E. coli” value was “not soluble”.

With “MKCQKDDPICHLRDDMQDGDNSVNRTVSHLFQLTLTILTRVYSNLNEISLVCQSWNLHAESSGIYKIPQKVQISLLKTFETNREAKSKNLLDPVLLDQFANQSIRAHSLLLLPYSTTRYKTWTGKTFSKHNLIDEFVGKSFECATESFCPDPCCSGIPSVVRSSSKYAPLCKMNSCQKASTCIVKHFENDDLSKLRLNQFNVNCGCEEPGTIYRPDIGRCVHHNPCTKQSLCRDFGQECVNTASGYKCVCQLGYFRNGSNSCAPLKFSAPVYHGFALSEEMDEL”, the “soluble on expression in E. coli” value is given as “not soluble”.

For “MYNNSAPYLNHSSLNTVRKKVVTVRRVLPSLPPPPPPPPSLYPPCSVFKVPYIPQRVYRSINSTLYNNQSFASSSRGFYRKQKPIPKSHPKHQEHHHHAKASVSTPVHSSSTSRNSSVAPTPQRTVSTSSSSSSAATSARVSEDESDSDSTPGEVQRRKTSVLSNDKRRRRASFSSTSIQSSPERQRDVSSSSRTSSSSSTSSMKQEETADEKSRKRKLIMSSDESSTTGSTATSVVSSRQSSLEPQQEKTDGEPPKKKSQTDFISERVSKIEGEERPLPEPVETSGPIIGDSSYLPYKIVHWEKAGIIEMNLPANSIRAHEYHPFTTEHCYFGIDDPRQPKIQIFDHSPCKSEPGSEPLKITPAPWGPIDNVAETGPLIYMDVVTAPKTVQKKQKPRKQVFEKDPYEYYEPPPTKRPAPPPRFKKTFKPRSEEEKKKIIGDCEDLPDLEDQWYLRAALNEMQSEVKSADELPWKKMLTFKEMLRSEDPLLRLNPIRSKKGLPDAFYEDEELDGVIPVAAGCSRARPYEKMTMKQKRSLVRRPDNESHPTAIFSERDETAIRHQHLASKDMRLLQRRLLTSLGDANNDFFKINQLKFRKKMIKFARSRIHGWGLYAMESIAPDEMIVEYIGQTIRSLVAEEREKAYERRGIGSSYLFRIDLHHVIDATKRGNFARFINHSCQPNCYAKVLTIEGEKRIVIYSRTIIKKGEEITYDYKFPIEDDKIDCLCGAKTCRGYLN”, the “soluble on expression in E. coli” value is given as “soluble”.

In the case of “SHMAGLEVLFASAAPAITCRQDALVCFLHWEVVTHGYCGLGVGDQPGPNDKKSELLPAGWNNNKDLYVLRYEYKDGSRKLLVKAITVESSMILNVLEYGSQQVADLTLNLDDYIDAEHLGDFHRTYKNSEELRSRIVSGIITPIHEQWEKANV”, the “soluble on expression in E. coli” value is “soluble”.

Regarding “MKKESQVIFDKNVIEFVTVAAEFCAFLERAESMKRSTFVDTTLKILPLLYLKASMLPKCEMIGDESPETYVTEEIYEVLRINLASILAEKDDYLEVFLPDMAYSDEPIKKNISEDLADIYQDIKDFIFVFQLGLNETMNDSLAICQENFGLLWGQKLVNTMRALHDVKYSPKARLEHHHHHH”, the “soluble on expression in E. coli” value is “soluble”.
